Measurements from the DeepSol protein solubility set.

test: soluble on expression in E. coli; label from the status in PepcDB or PDB records

Q: Which “soluble on expression in E. coli” value does the source give for “MGHHHHHHSHMEETRAGRYIVRAGSGGQTEDTASGAESVLATLAAVRTRRRSVVCDGPPGSPTDSARHMSDLASLALTAEFGLGCLEAYVRINAGQVLPVVWPPGWNLVLQEIETDEDFKPEDVKAWSHYLCCQTRLAFVGRFVNEGVLSPDQQKKTAVCLISDEGYVFCYVREDTAVYYLARNLMEFARVGLRAVETLHCMRYLTSSLVKRYFRPLLRAWSLGLDTMARFIIRHHGQFMPLTYPPGTELRLCNLRCFENSVEGGHLLRNIKTAFGMRVLGLGTVSLKGENAPFPHLRWPVDLIPIVVAYTGAVYACDVRDDRYIRVGDNLNTFMCLGLNLLFENRRFSGHNGIYDRVPDCPKGRQHR” here?
A: not soluble

Q: With “MSLSKRILSPLQNNGILGEFYGVIIRAIEENCGRLGMNVELKMLENFSESNGADGYIFIGGDLSEKTLKEIKSRKKPFVLVDHYIPGERVDCVISDGYDGAVYATNYLISKGFKRIVHVHGPLHPYGFKMRYDGYKDAMEKAGLMPRFYECDDTEEGTRKVIDIMLNSYGTPEAIFTSNDSIAFWVIKRLKEHNIKVPDDVSVIGFDDIVDAENFDPPLTTLRVFKYEMGCLACKRLHELLTGINPHPVRILVFTQFVKRKSTKEGHHHHHH” as the sequence, how does the “soluble on expression in E. coli” value read?
A: soluble

Q: For “MRSYAIGDIHGHLSLLQEIHGRIAADRARTGDDEAPVVHIGDLVDRGPDSRGVVEYLRQGIEQGENWVVLKGNHDRMFAGFLRDPAHQDPGLRGDLSWLHPRLGGGPTLESYGVAHAADRPVAIVHREAVALVPAEHVAFIEALPAVYRRDEALFVHAGIRPGVPLAEQIEDDLVWIREPFLSDPRDHGMLVVHGHTAIDAVTHYGNRLNLDSGAAYGGPLSAVVIEGRSVWQLGPEGRRPIALEHHHHHH”, which “soluble on expression in E. coli” value is on record?
A: not soluble

Q: Which “soluble on expression in E. coli” value does the source give for “MGSDKIHHHHHHMGRRLRVEYLGAMYHVVQRGNNREFIFGRPDERDYLIEQVGNAVKVDGVTVFAYVVMSNHYHLLLRTDGEFLSKVMHRVNTRYSRFFNCDSGRDRTGVVFEGRYKAILVQNDDYLLSLVRYIHRNPLRAGIVSRFCDYRWSSDACYRQQGNGPGGGDFVNCDLILRMFSDKKQIALREYKRFMENDDGKDWENIPCIGDDSFAQLAEPRKEKAGRVSLDEILINTGVDNEEFQLIKQGSRKRLLQKYKIAFTGEAIGQGYTMREIGQHIKLSHVAISHLFNSKQDSK” here?
A: not soluble

Q: With “AQSVPYGISQIKAPALHSQGYTGSNVKVAVIDSGIDSSHPDLNVRGGASFVPSETNPYQDGSSHGTHVAGTIAALNNSIGVLGVSPSASLYAVKVLDSTGSGQYSWIINGIEWAISNNMDVINMSLGGPTGSTALKTVVDKAVSSGIVVAAAAGNEGSSGSTSTVGYPAKYPSTIAVGAVNSSNQRASFSSAGSELDVMAPGVSIQSTLPGGTYGAYNGTCMATPHVAGAAALILSKHPTWTNAQVRDRLESTATYLGNSFYYGKGLINVQAAAQ” as the sequence, how does the “soluble on expression in E. coli” value read?
A: soluble

Q: With “EEQIMRRNEDSWLIDGATPLEDVMRALNIHTFPRDENYETIGGFMMYMLRKIPKKTDFVLYDKYKFEIIDTENFRIDQLMVSFRK” as the sequence, how does the “soluble on expression in E. coli” value read?
A: soluble

Q: For “MPMTDLPSAVTNERTEQTNTTNEQQESKGFDYLIVGAGFAGSVLAERLASSGQRVLIVDRRPHIGGNAYDCYDDAGVLIHPYGPHIFHTNSKDVFEYLSRFTEWRPYQHRVLASVDGQLLPIPINLDTVNRLYGLNLTSFQVEEFFASVAEKVEQVRTSEDVVVSKVGRDLYNKFFRGYTRKQWGLDPSELDASVTARVPTRTNRDNRYFADTYQAMPLHGYTRMFQNMLSSPNIKVMLNTDYREIADFIPFQHMIYTGPVDAFFDFCYGKLPYRSLEFRHETHDTEQLLPTGTVNYPNDYAYTRVSEFKHITGQRHHQTSVVYEYPRAEGDPYYPVPRPENAELYKKYEALADAAQDVTFVGRLATYRYYNMDQVVAQALATFRRLQGQPEQGNAE”, which “soluble on expression in E. coli” value is on record?
A: soluble

Q: For “MSKVMNALKQSQQKYLQAQPVSRRTYTEQEPTAMNPSRWLHLALWLVPGLVTAGVMTYQRYELVQQEVANRQTEPTTVQVDAPLERLAYPEFQDLQPTFVESGLDEPYPEEDVTALADNIVAPPATIQASGQQSASNKALGDLDLTQLSPELALRVQAIMRDQSSEPATPSTPTSAAVSLTQHSDRYQGQLPALNFQMHAFSSNEQKRWIKVNGVEYREGDMLTPEVKLESIKPQSSVIIFGGEEIEIPALYDWKG”, which “soluble on expression in E. coli” value is on record?
A: not soluble

Q: Which “soluble on expression in E. coli” value does the source give for “GPHMADLFGDDIEEIPDTDFDFEGNLALFDKAAVFEEIDTYERR” here?
A: soluble

Q: Which “soluble on expression in E. coli” value does the source give for “MFCKRFIALVTMLTLVCSMLLPYSNASAETGSALNIEAGAAILVEANSGKILYQKNADELLSIASMTKMMSEYLVHEAVDKGKFKWDQKIKVSEYAYKVSQDASLSNVALENGGSYTVKELYEAMAIFSANGATIALAEAIAGKEVDFVKMMNDKSKELGLKNYKFVNSTGLTNKDLKGMHPEGTTADEENKMSAKDVATLAQHLIKDYPKVLDTAKIPKKEFRPEKEKFAMSNWNWMLKGLVKEYDGVDGLKTGSTPEAGDCFTGTVERNGMRFISVVIKTSSHTARFDETKKLYDYGFANFEMKQMYKKGSSVKGQETVRVENAKDKDVAVQTKQAISLPVPKGSKEVYKTELKESSKGQEAPIKKGAALGQMVITPKDTNDPGFLTGKSLQVDLVTTSEVEEANWFTRAMRGIGSFFSGIWNSAVDTVKGWF” here?
A: not soluble

Q: Which “soluble on expression in E. coli” value does the source give for “MIFMRKVVAEVSIIPLGKGASVSKYVKKAIEVFKKYDLKVETNAMGTVLEGDLDEILKAFKEAHSTVLNDVDRVVSSLKIDERKDKENTIERKLKAIGEL” here?
A: soluble

Q: With “MKIVAITSCPNGIAHTYMAQEKLEQVAKEMGVDIKVETQGGVGAENVLTTQDIEEADGVIIAADKQVDLSRFVGKRLINENVREGIHNPRGLIQRIINQDAPIYQSETN” as the sequence, how does the “soluble on expression in E. coli” value read?
A: not soluble

Q: Which “soluble on expression in E. coli” value does the source give for “MTQANLSETLFKPRFKHTETSTLVRRFNRGSQPPMQSALDGKNVPHWYRMINRLMWIWRGVDPREILDVQARIVMSDAERTDDDLYDTVIGYRGGNWIYEWAKQAMDWQQKACQEQDAMRSGRYWLHASTLYNIAAYPHLKGDELAEQAQALANRAYEEAAQRLPGSLREMEFAVPGGSPVTAFLHMPKGDGPFPTVLMCGGLDAMQTDYYTLYERYFAPRGIAMLTLDMPSVGFSSKWKLTQDSSLLHQHVLKALPNVPWVDHTRVAAFGFRFGANVAVRLAYLEAPRLKAVACLGPVVHALLSDPQRQSTVPEMYLDVLASRLGMHDASDEALRVELNRYSLKVQGLLGRRCPTPMLSGFWKNDPFSPEEESRLITTSSSDGKLIEIPFNPVYRNFDRALQEITDWINHRLC” here?
A: not soluble

Q: For “MLRRSSVVLARFQPYSMAVQTRFKWRHKETDRWRRLMDATCFQVDWLGQTAGPNFAQYSGHWTHVITCAHVITPWDYPNYYPPQGPTRFVSHITLADTMTQIRLVSMQGNAVYKHFTSNQHVFVHSNPRLDLCVLHPEQNLKRSGEMKMMWMQNEGYISRPRLEINETLKVGDYVWVYGMSAHESLFDEEKGPEPLMIPTGVRARVHAVTREHFFLDTTALEDNPDRGRIQMGMCGSVVMRNGKCVGMLTATVHEESDCKELAGTAMCTYSSDVFEFLLEVEKQMKNPVARQSQEETRFEQRRRAEGGVKEHKHWELDESRTARHIPVPVSLWHMEEKWVTEEDYMNSAVFGRSGAFNQETQESALGYDMNTAKTNGDRPGDIDSFMSTTTTGKPVMQGERKDYSPTGVYANVEEFKNKDVWDYNVSSEMRSLFNETVDSKDAESLNMMRKSLENIRAQRAMEKMKETVMNRTEPGFDPLKGYGHYGGSADAGAANFNPEYASAHKGSGDAYSYAQAAQQAAREQPGDHASPASTPPPSPPPPNESVIDRKKRERREAEAKYQEELRRRHGQRAVPFGDEDLSGFWERR”, which “soluble on expression in E. coli” value is on record?
A: not soluble

Q: For “HMTHIDDYSTWDIVKATQYGIYERCRELVEAGYDVRQPDKENVTLLHWAAINNRIDLVKYYISKGAIVDQLGGDLNSTPLHWATRQGHLSMVVQLMKYGADPSLIDGEGCSCIHLAAQFGHTSIVAYLIAKGQDVDMMDQNGMTPLMWAAYRTHSVDPTRLLLTFNVSVNLGDKYHKNTALHWAVLAGNTTVISLLLEAGANVDAQNIKGESALDLAKQRKNVWMINHLQEARQAKGYDN”, which “soluble on expression in E. coli” value is on record?
A: soluble

Q: With “VKLAAGMGVMSDLEKKFIELEAKLVAQPAGQAMPGKSNIFANNEAWRQEMLKQDPEFFNRLANGQSPEYLWIGCADSRVPANQLLDLPAGEVFVHRNIANQCIHSDISFLSVLQYAVQYLKVKHILVCGHYGCGGAKAALGDSRLGLIDNWLRHIRDVRRMNAKYLDKCKDGDEELNRLIELNVLEQVHNVCATSIVQDAWDAGQELTVQGVVYGVGDGKLRDLGVVVNSSDDISKFYRTKSDSGALKAGNPNAPLVQVTKGGESELDSTMEKLTAELVQQTPGKLKEGANRVFVNNENWRQKMLKQDPQFFSNLAHTQTPEILWIGCADSRVPANQIINLPAGEVFVHRNIANQCIHSDMSFLSVLQYAVQYLKVKRVVVCGHYACGGCAAALGDSRLGLIDNWLRHIRDVRRHNQAELSRITDPKDSLNRLIEINVLEQMHNVCATSIVQDAWDAGQELEVQGVVYGVGDGKLRDMGVVAKANDDIGQIFRTKQ” as the sequence, how does the “soluble on expression in E. coli” value read?
A: soluble

Q: Which “soluble on expression in E. coli” value does the source give for “MFKPELLSPAGTLKNMRYAFAYGADAVYAGQPRYSLRVRNNEFNHENLQLGINEAHALGKKFYVVVNIAPHNAKLKTFIRDLKPVVEMGPDALIMSDPGLIMLVREHFPEMPIHLSVQANAVNWATVKFWQQMGLTRVILSRELSLEEIEEIRNQVPDMEIEIFVHGALCMAYSGRCLLSGYINKRDPNQGTCTNACRWEYNVQEGKEDDVGNIVHKYEPIPVQNVEPTLGIGAPTDKVFMIEEAQRPGEYMTAFEDEHGTYIMNSKDLRAIAHVERLTKMGVHSLKIEGRTKSFYYCARTAQVYRKAIDDAAAGKPFDTSLLETLEGLAHRGYTEGFLRRHTHDDYQNYEYGYSVSDRQQFVGEFTGERKGDLAAVAVKNKFSVGDSLELMTPQGNINFTLEHMENAKGEAMPVAPGDGYTVWLPVPQDLELNYALLMRNFSGETTRNPHGK” here?
A: not soluble

Q: For “AGSDEVNRNECKTVVPLHTWVLISNFKLSYNILRRADGTFERDLGEYLDRRVPANARPLEGVSSFDHIIDQSVGLEVRIYRAAAEGDAEEGAAAVTRPILEFLTDAPAAEPFPVIIFFHGGSFVHSSASSTIYDSLCRRFVKLSKGVVVSVNYRRAPEHRYPCAYDDGWTALKWVMSQPFMRSGGDAQARVFLSGDSSGGNIAHHVAVRAADEGVKVCGNILLNAMFGGTERTESERRLDGKYFVTLQDRDWYWKAYLPEDADRDHPACNPFGPNGRRLGGLPFAKSLIIVSGLDLTCDRQLAYADALREDGHHVKVVQCENATVGFYLLPNTVHYHEVMEEISDFLNANLYYGSHHHHHHHHHH”, which “soluble on expression in E. coli” value is on record?
A: soluble

Q: Which “soluble on expression in E. coli” value does the source give for “MKQFDKHADAYNVVRGKIAYPDSLYRNLAERAPAREAALDIGCGNGVSTVRLQPWFRYVEGSDLGEALIAKARENYPEIRFSVSPAETFAPQRRFDLVTSATSFYWMDRKQVLTRMADWLTPGGLFCAYKYDFPIAYGPLRDFIEHELVNKWAKHRDPRLTRYDDTLEIMGSCPHLRDCRREVFANIIFLSPEEVALFFLSTSYVTRYIEQEGGEDYADRFIAAVREIESAPQVAVNFDIHAFTALNR” here?
A: not soluble

Q: Which “soluble on expression in E. coli” value does the source give for “MPLEASELKPTAGPLEASELKPTAGPLEASELKPTAGPLEASELKPTAGPLEASELKPTAGPLEASELKPTAGPLEASELKPTAGMIVVYVFVYAFKAVKQYFYPSDNLKVLMHKFTDMVNFTINIMIEKNLTSRNSVSNEVYHKLKEYEIPSYYYIEAINKAVALVKTYRKRLKKKQKATVPHVEKPMLSTYYGFKIVGGNIMIPIANREYESIPLNAYVRDATSMVKVHSFALSAYTLSLTIGRDVDAIECTTTVGVDRNLRNITVGNEFHHEIYDLSNIVEIKQRYRKKESHFHRNDRRIREKILSKYGKRERNRVKQIMHETSKAIVSNASTKKEMIVLENIIGINQITKKGDGKGKDYRFLLKNAFPYGMLASQVMYKASWEGLPVIELTRKETRNTSRMCSVCGSLTRIEHGRILKCDSCGLEIDRDVNACINIAFRYRTCLKRSHKGLPGEAVKQSKDVEQMAGSQISMDILEHHHHHH” here?
A: not soluble
